Literature values, collected in US6446032B1, “Designing compounds specifically inhibiting ribonucleic acid by binding to the minor groove” (Massachusetts Institute of Technology, priority 1990, dated 2002).

Test system: normal cells as well as tumor cells
Conditions: binds and cleaves all rRNAs

B1: Alpha-sarcin: cytotoxic protein with potent antisarcoma activity, isolated from a mold, that inactivates ribosomes by cleaving the rRNA (protein, UniProt P00655 28-177, looked up)
Ribonuclease alpha-sarcin: AVTWTCLNDQKNPKTNKYETKRLLYNQNKAESNSHHAPLSDGKTGSSYPHWFTNGYDGDGKLPKGRTPIKFGKSDCDRPPKHSKDGNGKTDHYLLEFPTFPDGHDYKFDSKKPKENPGPARVIYTYPNKVFCGIIAHTKENQGELKLCSH
Q: With B1 as the molecule, how does the toxicity to cells read?
A: The toxicity to cells was “highly toxic to normal cells as well as tumor cells”.
